US20240263193A1
Numbering of substitutions follows the chain as printed. Blank lines part the entries; values can stand above or below the substance they belong to.

Columns and labels:
Experiment in all cases: cell-based or functional assay
[1] = molecular target: Bcl-TEV IRES iADAR
[2] = molecular target: T1, BAD(V)
T1 sequence (peptide): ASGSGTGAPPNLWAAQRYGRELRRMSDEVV

[3] = molecular target: T2, BAD(G)
T2 sequence (peptide): T1 sequence (peptide) with V29G

[4] = molecular target: T3, Bad(L)
T3 sequence (peptide): T1 sequence (peptide) with V29L

[5] = molecular target: T4, BAD (N-terminal BAD peptide)
T4 sequence (peptide): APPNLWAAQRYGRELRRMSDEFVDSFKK

[6] = molecular target: T5, Bad(F)
T5 sequence (peptide): T1 sequence (peptide) with V29F

[7] = molecular target: T6, MS1(I17G)
T6 sequence (peptide): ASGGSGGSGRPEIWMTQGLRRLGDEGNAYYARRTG

[8] = molecular target: T7, MS1(I17A)
T7 sequence (peptide): T6 sequence (peptide) with G26A

Sequence of Bcl-xL (Q07817 4-198 limits assumed): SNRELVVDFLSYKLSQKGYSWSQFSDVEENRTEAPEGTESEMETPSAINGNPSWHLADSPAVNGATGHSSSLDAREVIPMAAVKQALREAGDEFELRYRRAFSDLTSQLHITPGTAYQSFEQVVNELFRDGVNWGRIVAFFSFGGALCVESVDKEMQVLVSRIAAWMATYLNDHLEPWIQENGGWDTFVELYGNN
Sequence of Mcl-1 (Q07820 172-327 limits assumed): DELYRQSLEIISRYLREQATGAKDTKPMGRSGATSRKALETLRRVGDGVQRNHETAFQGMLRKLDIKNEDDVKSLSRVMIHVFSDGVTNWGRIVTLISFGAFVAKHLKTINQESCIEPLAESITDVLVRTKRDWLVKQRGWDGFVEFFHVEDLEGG

Substance: TEV Protease (from UniProt P04517 2038-2271) (enzyme)
fold change of the mean RFU (mNeonGreen-to-mCherry), TEV protease against filler DNA, single-transcript IRES-iADAR, HEK cells, microscopy [1]: 17 fold
fold change of the mean RFU (mNeonGreen-to-mCherry), dual addition of A-1331852 and TEV protease, single-transcript IRES-iADAR, HEK cells, microscopy [1]: 32 fold

Fold Change, 1 µM against 0 µM A-1331852, HEK cells, flow cytometry (intramolecular pair) [2]: 14.4 fold
median ratio of mNeonGreen to mCherry, 0 µM A-1331852, HEK cells, flow cytometry (intramolecular pair) [2]: 0.0708
median ratio of mNeonGreen to mCherry, 1 µM A-1331852, HEK cells, flow cytometry (intramolecular pair) [2]: 1.02
Fold Change, 1 µM against 0 µM A-1331852, HEK cells, flow cytometry (intramolecular pair) [3]: 9.65 fold
median ratio of mNeonGreen to mCherry, 0 µM A-1331852, HEK cells, flow cytometry (intramolecular pair) [3]: 0.1
median ratio of mNeonGreen to mCherry, 1 µM A-1331852, HEK cells, flow cytometry (intramolecular pair) [3]: 0.968
Fold Change, 1 µM against 0 µM A-1331852, HEK cells, flow cytometry (intramolecular pair) [4]: 23.2 fold
median ratio of mNeonGreen to mCherry, 0 µM A-1331852, HEK cells, flow cytometry (intramolecular pair) [4]: 0.0389
median ratio of mNeonGreen to mCherry, 1 µM A-1331852, HEK cells, flow cytometry (intramolecular pair) [4]: 0.903
fold change of mNeonGreen/mCherry with A-1331852, nBAD-ADAR-cBcl-xL with unmutated DD, HEK cells, microscopy (intramolecular pair) [5]: 5.9 fold
Fold Change, 1 µM against 0 µM A-1331852, HEK cells, flow cytometry (intramolecular pair) [6]: 37 fold
median ratio of mNeonGreen to mCherry, 0 µM A-1331852, HEK cells, flow cytometry (intramolecular pair) [6]: 0.026
median ratio of mNeonGreen to mCherry, 1 µM A-1331852, HEK cells, flow cytometry (intramolecular pair) [6]: 0.962
Substance: Bcl-xL (from UniProt Q07817 4-198)

fold change of mNeonGreen/mCherry with S63845, MS1(I17G)-Mcl1 ADAR with unmutated DD, HEK cells, microscopy (intramolecular pair) [7]: 2.8 fold
fold change of mNeonGreen/mCherry with S63845, MS1(A)-Mcl1 ADAR with unmutated DD, HEK cells, microscopy (intramolecular pair) [8]: 12 fold
Substance: Mcl-1 (from UniProt Q07820 172-327)
